The source of these data is PMC3656124, “DNA Topoisomerase II Is Involved in Regulation of Cyst Wall Protein Genes and Differentiation in Giardia lamblia” (PLoS Neglected Tropical Diseases, 2013).

Data set [1] has as its target T1, Topo IIC (Giardia lamblia, UniProt E2RU90 489-1491).
T1 sequence: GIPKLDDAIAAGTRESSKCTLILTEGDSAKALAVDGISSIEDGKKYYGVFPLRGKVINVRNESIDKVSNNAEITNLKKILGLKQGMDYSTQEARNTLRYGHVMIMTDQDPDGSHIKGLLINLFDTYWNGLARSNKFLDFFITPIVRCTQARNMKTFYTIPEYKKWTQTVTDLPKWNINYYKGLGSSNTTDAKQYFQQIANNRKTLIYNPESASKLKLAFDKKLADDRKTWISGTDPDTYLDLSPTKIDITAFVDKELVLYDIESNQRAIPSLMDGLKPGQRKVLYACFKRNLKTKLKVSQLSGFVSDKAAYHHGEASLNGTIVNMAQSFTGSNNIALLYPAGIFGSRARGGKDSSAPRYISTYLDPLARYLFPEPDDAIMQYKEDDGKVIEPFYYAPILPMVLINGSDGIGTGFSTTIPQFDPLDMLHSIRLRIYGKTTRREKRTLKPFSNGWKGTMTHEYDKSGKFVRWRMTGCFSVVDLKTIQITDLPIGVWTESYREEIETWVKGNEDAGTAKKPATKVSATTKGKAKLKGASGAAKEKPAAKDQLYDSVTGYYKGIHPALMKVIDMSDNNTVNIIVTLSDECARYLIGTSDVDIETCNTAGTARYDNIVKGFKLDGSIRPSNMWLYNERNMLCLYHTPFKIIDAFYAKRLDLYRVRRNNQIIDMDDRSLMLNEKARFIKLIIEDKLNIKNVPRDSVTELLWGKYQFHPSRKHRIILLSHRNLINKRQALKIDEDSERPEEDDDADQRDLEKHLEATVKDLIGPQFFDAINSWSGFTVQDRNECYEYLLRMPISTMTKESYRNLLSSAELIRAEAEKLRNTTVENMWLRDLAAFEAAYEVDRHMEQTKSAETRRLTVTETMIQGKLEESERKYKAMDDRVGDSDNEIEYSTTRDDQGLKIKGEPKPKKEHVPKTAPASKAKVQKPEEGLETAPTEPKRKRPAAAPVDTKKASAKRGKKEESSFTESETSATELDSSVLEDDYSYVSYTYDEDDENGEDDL
In words: competition; 200-fold excess vs labeled IIBS; EMSA: 0.02 pmol 5'-labeled probe, 5 ng protein, 20 ul, 0.5 ug poly(dI-dC), 15 min, room temperature, 6% acrylamide gel; buffer, salt and pH only by citation. The following applies: protein: recombinant; tags: C-terminal V5-His; chain copies: 2.

The target in the next data set is T2, Myb2 (Giardia lamblia, UniProt Q8ISM2 1-530).
T2 sequence: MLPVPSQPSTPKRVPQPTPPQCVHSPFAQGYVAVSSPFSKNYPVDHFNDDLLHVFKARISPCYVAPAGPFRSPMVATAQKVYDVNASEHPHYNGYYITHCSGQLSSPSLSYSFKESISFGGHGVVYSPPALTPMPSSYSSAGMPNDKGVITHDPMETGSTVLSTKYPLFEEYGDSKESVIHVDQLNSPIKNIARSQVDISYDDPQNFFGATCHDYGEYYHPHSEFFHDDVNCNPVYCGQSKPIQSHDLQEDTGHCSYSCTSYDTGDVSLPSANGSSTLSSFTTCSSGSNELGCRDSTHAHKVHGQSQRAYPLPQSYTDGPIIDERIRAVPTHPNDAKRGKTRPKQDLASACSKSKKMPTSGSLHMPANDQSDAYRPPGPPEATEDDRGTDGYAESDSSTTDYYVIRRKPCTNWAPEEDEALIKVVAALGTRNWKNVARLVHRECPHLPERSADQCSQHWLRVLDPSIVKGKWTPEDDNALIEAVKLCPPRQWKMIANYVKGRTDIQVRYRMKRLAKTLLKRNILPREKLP
In words: EMSA; EMSA: 0.02 pmol 5'-labeled probe, 5 ng protein, 20 ul, 0.5 ug poly(dI-dC), 15 min, room temperature, 6% acrylamide gel; buffer, salt and pH only by citation. The following applies: protein: recombinant.

For data set [2], the target named is T1, Topo IIC. Described as above. The following applies: protein: recombinant; tags: C-terminal V5-His; chain copies: 2.

B1: poly(A) with TC insertion (dsDNA)
DNA 1: AAAAAAAAAAATCAAAAAAAAAA
DNA 2: TTTTTTTTTTGATTTTTTTTTTT
In the case of B1, the binding result with Topo IIC [1] was “binds”.

B2: cwp2-30/+8 (dsDNA)
DNA 1: CAGCAGCTCAACAGTGGCTGGGAAAATAAAATGATCGC
DNA 2: GCGATCATTTTATTTTCCCAGCCACTGTTGAGCTGCTG
Regarding B2, the binding result with Topo IIC [1] is “binds”.

B3: cwp1-90/-46 (dsDNA)
DNA 1: CTGGCTAACAGTCTACAGTCTACAATTTACAGTATACAATCTACA
DNA 2: TGTAGATTGTATACTGTAAATTGTAGACTGTAGACTGTTAGCCAG
Turning to B3, the binding result with Myb2 (label: 5'-32P for Myb2) is recorded as “binds”.

B4: cwp1-45/-1 (dsDNA)
DNA 1: GTTTACAACTCTCAGATCAAGAAACACAGAAATAAAATATCAGGG
DNA 2: CCCTGATATTTTATTTCTGTGTTTCTTGATCTGAGAGTTGTAAAC
In the case of B4, in the data set with Topo IIC [2], the binding result was “binds”.

B5: 18S-60/-31 (dsDNA)
DNA 1: CCGTGCCAGGCGGCGGCCCCCGCGCAGGGA
DNA 2: TCCCTGCGCGGGGGCCGCCGCCTGGCACGG
On to B5, for which the binding result in the data set with Topo IIC [2] was “no binding”.

B6: poly(A) (dsDNA)
DNA 1: AAAAAAAAAAAAAAAAAAAAAAA
DNA 2: TTTTTTTTTTTTTTTTTTTTTTT
As to B6, the binding result with Topo IIC [1] is “binds”.

B7: 18S-30/-1 (dsDNA)
DNA 1: GGCGCCCGGCCCGCGGCGCCCGCGCCCGGC
DNA 2: GCCGGGCGCGGGCGCCGCGGGCCGGGCGCC
Consider B7, for which the binding result with Topo IIC [2] was “no binding”.

B8: ran-51/-20 (dsDNA)
DNA 1: TAAAATAAATTAAATCGAAATTAAAACTTTAA
DNA 2: TTAAAGTTTTAATTTCGATTTAATTTATTTTA
Take B8: in the data set with Topo IIC [1], the binding result is given as “binds”.

B9: topo II-85/-40 (dsDNA)
DNA 1: TGTAAATCAATATTATCGTCCTACAGCTGCTAGCTTGGTGACAGGA
DNA 2: TCCTGTCACCAAGCTAGCAGCTGTAGGACGATAATATTGATTTACA
Consider B9, for which the binding result with Myb2 (label: 5'-32P) is on record as “binds”.

B10: poly(A) with TT insertion (dsDNA)
DNA 1: AAAAAAAAAAATTAAAAAAAAAA
DNA 2: TTTTTTTTTTAATTTTTTTTTTT
As for B10, the binding result with Topo IIC [1] was “binds”.

B11: cwp3-30/+10 (dsDNA)
DNA 1: GTCTTTCCCAAAAAATAAGTTACTACTGATATGTTTTCTC
DNA 2: GAGAAAACATATCAGTAGTAACTTATTTTTTGGGAAAGAC
In the case of B11, the binding result with Topo IIC [1] was “binds”.
